Test system: Escherichia coli TOP10
Assay: shrunken log2 fold change of peptide-encoding DNA abundance (4.5 h post-induction vs induction); higher = less antimicrobial activity (less host growth inhibition)
Settings: time post-induction: 4.5 h; library: site-saturation at positions 5, 18, 19, 20
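Note: peptides expressed intracellularly from a pBAD plasmid library in pooled LB shake-flask culture, induced with 0.3% L-arabinose, DNA abundance read by NGS, three biological replicates, DESeq2 with apeglm shrinkage.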

Sequence	shrunken log2 fold change
RRIRERPPRLPRPRPRPRNRPRP	-0.134
RRIRTRPPRLPRPRPRPSVHPRP	-0.237
RRIRGRPPRLPRPRPRPFCNPRP	0.243
RRIRVRPPRLPRPRPRPETIPRP	0.0608
RRIRCRPPRLPRPRPRPPKKPRP	0.132
RRIRFRPPRLPRPRPRPVWQPRP	0.0042
RRIRHRPPRLPRPRPRPHKIPRP	-0.215
RRIRTRPPRLPRPRPRPLHFPRP	-0.189
RRIRDRPPRLPRPRPRPDHFPRP	-0.0133
RRIRWRPPRLPRPRPRPFVTPRP	-0.215
RRIRSRPPRLPRPRPRPVHLPRP	-0.177
RRIRYRPPRLPRPRPRPEKGPRP	-0.00176
RRIRTRPPRLPRPRPRPIKDPRP	-0.104
RRIRTRPPRLPRPRPRPCSFPRP	-0.625
RRIRLRPPRLPRPRPRPGHNPRP	-0.371
RRIRIRPPRLPRPRPRPSCFPRP	-0.625
RRIRSRPPRLPRPRPRPRVVPRP	0.245
RRIRVRPPRLPRPRPRPEARPRP	0.389
RRIRPRPPRLPRPRPRPSKQPRP	-0.116
RRIRRRPPRLPRPRPRPAIEPRP	0.109
RRIRERPPRLPRPRPRPIYCPRP	-0.143
RRIRPRPPRLPRPRPRPQVYPRP	0.962

Sequence	shrunken log2 fold change
RRIRFRPPRLPRPRPRPVSCPRP	-0.514
RRIRLRPPRLPRPRPRPAAVPRP	0.376
RRIRTRPPRLPRPRPRPWTPPRP	-0.00155
RRIRFRPPRLPRPRPRPAHFPRP	0.0115
RRIRFRPPRLPRPRPRPSNIPRP	-0.864
RRIRTRPPRLPRPRPRPVLWPRP	0.117
RRIRGRPPRLPRPRPRPYNPPRP	-0.504
RRIRGRPPRLPRPRPRPAYYPRP	-0.0149
RRIRLRPPRLPRPRPRPKQSPRP	-0.00745
RRIRMRPPRLPRPRPRPMVKPRP	0.0401
RRIRERPPRLPRPRPRPWCVPRP	-0.94
RRIRWRPPRLPRPRPRPKWMPRP	0.242
RRIRMRPPRLPRPRPRPKEIPRP	0.38
RRIRYRPPRLPRPRPRPMADPRP	-0.0453
RRIRERPPRLPRPRPRPTNNPRP	-0.591
RRIRHRPPRLPRPRPRPVNLPRP	-0.0241
RRIRCRPPRLPRPRPRPLFMPRP	-0.368
RRIRWRPPRLPRPRPRPKINPRP	-0.245
RRIRNRPPRLPRPRPRPLVIPRP	-0.432
RRIRQRPPRLPRPRPRPLQCPRP	-0.357
RRIRPRPPRLPRPRPRPPCMPRP	-0.165
RRIRSRPPRLPRPRPRPSCAPRP	0.0589

Sequence	shrunken log2 fold change
RRIRQRPPRLPRPRPRPKFNPRP	-0.271
RRIRRRPPRLPRPRPRPKHVPRP	0.19
RRIRRRPPRLPRPRPRPGHKPRP	0.0528
RRIRWRPPRLPRPRPRPWFCPRP	-0.0932
RRIRQRPPRLPRPRPRPYISPRP	-0.716
RRIRDRPPRLPRPRPRPHMVPRP	-0.195
RRIRTRPPRLPRPRPRPAPTPRP	0.0808
RRIRQRPPRLPRPRPRPKNHPRP	-0.23
RRIRSRPPRLPRPRPRPLWEPRP	-0.0343
RRIRVRPPRLPRPRPRPAPHPRP	0.286
RRIRMRPPRLPRPRPRPDSRPRP	-0.00783
RRIRARPPRLPRPRPRPWERPRP	0.12
RRIRSRPPRLPRPRPRPYQQPRP	-2.39
RRIRSRPPRLPRPRPRPCRYPRP	-0.424
RRIRERPPRLPRPRPRPQFTPRP	-0.472
RRIRDRPPRLPRPRPRPRDDPRP	-0.0224
RRIRYRPPRLPRPRPRPTWNPRP	-0.424
RRIRIRPPRLPRPRPRPEAIPRP	-0.0271
RRIRRRPPRLPRPRPRPGQQPRP	0.119
RRIRHRPPRLPRPRPRPKMPPRP	-0.0334
RRIRTRPPRLPRPRPRPESQPRP	-0.0324
RRIRHRPPRLPRPRPRPWMHPRP	0.0155

Sequence	shrunken log2 fold change
RRIRWRPPRLPRPRPRPWSRPRP	-0.132
RRIRWRPPRLPRPRPRPPQLPRP	0.462
RRIRARPPRLPRPRPRPKYWPRP	0.233
RRIRCRPPRLPRPRPRPKRFPRP	0.322
RRIRQRPPRLPRPRPRPKNDPRP	-0.379
RRIRFRPPRLPRPRPRPSGNPRP	-0.24
RRIRARPPRLPRPRPRPRRCPRP	0.519
RRIRFRPPRLPRPRPRPQYVPRP	-0.368
RRIRIRPPRLPRPRPRPKDLPRP	0.000215
RRIRYRPPRLPRPRPRPIYVPRP	-1.88
RRIRERPPRLPRPRPRPIQNPRP	0.0753
RRIRARPPRLPRPRPRPQRPPRP	0.517
RRIRRRPPRLPRPRPRPRLSPRP	-0.0979
RRIRWRPPRLPRPRPRPTLVPRP	-0.212
RRIRKRPPRLPRPRPRPTLGPRP	1.72
RRIRVRPPRLPRPRPRPLKCPRP	-0.412
RRIRHRPPRLPRPRPRPALRPRP	0.269
RRIRNRPPRLPRPRPRPENWPRP	0.0185
RRIRDRPPRLPRPRPRPWDNPRP	-0.00183
RRIRNRPPRLPRPRPRPMINPRP	-0.346
RRIRARPPRLPRPRPRPMSYPRP	0.163
RRIRDRPPRLPRPRPRPMRSPRP	-0.00884

Sequence	shrunken log2 fold change
RRIRNRPPRLPRPRPRPTKYPRP	-0.564
RRIRPRPPRLPRPRPRPLWVPRP	0.165
RRIRLRPPRLPRPRPRPDGHPRP	0.0499
RRIRARPPRLPRPRPRPIMTPRP	0.0421
RRIRVRPPRLPRPRPRPADCPRP	0.0869
RRIRARPPRLPRPRPRPKIEPRP	0.173
RRIRWRPPRLPRPRPRPKLPPRP	0.247
RRIRVRPPRLPRPRPRPIPHPRP	-0.307
RRIRIRPPRLPRPRPRPNVNPRP	-0.594
RRIRFRPPRLPRPRPRPTMNPRP	-0.511
RRIRFRPPRLPRPRPRPRCAPRP	0.178
RRIRLRPPRLPRPRPRPVHGPRP	0.0748
RRIRPRPPRLPRPRPRPYSEPRP	0.0371
RRIRGRPPRLPRPRPRPYVPPRP	-0.529
RRIRSRPPRLPRPRPRPTNDPRP	-0.162
RRIRERPPRLPRPRPRPGIRPRP	-0.0819
RRIRHRPPRLPRPRPRPAWYPRP	-0.0318
RRIRARPPRLPRPRPRPWSIPRP	-0.0906
RRIRGRPPRLPRPRPRPACCPRP	0.875
RRIRDRPPRLPRPRPRPWNPPRP	-0.586
RRIRPRPPRLPRPRPRPVQVPRP	-0.119
